This is an account of results in patent US20110172168A1 (MEDIGENE, published 2011).

This assay addresses T1, CEA-derived … (SEQ ID NO: 71)-HLA-A*0201 complex (biotin on the C-terminal biotinylation tag (enzymatic, BirA)).
T1 construct: also called soluble biotinylated HLA-A2-peptide complex; not shown: C-terminal biotinylation tag that replaces the transmembrane and cytoplasmic domains
In words: Biacore SPR, pMHC immobilised. As to the method: SPR measures changes in refractive index expressed in response units (RU) near a sensor surface within a small flow cell, a principle that can be used to detect receptor ligand interactions and to analyse their affinity and kinetic parameters. The probe flow cells were prepared by immobilising the pMHC complexes in flow cells via biotin-tag binding. The assay was then performed by passing soluble ILT over the surfaces of the different flow cells at a constant flow rate, measuring the SPR response in doing so.
For orientation: In SPR one partner is held on a chip, and binding of the other changes the refractive index at the surface.

B1: SEQ ID NO 30 (receptor)
chain: MAGHLPKPTLWAEPGSVITQGSPVTLRCQGGQETQEYRLYREKKTAPWITRIPQELVKKGQFPIPSITWEHAGRYRCYYGSDTSQWSASSDPLELVVTGVYIKPTLSAQPSPVVNSGGNVTLQCDSQVAFDGFILCKEGEDEHPQCLNSQPHARGSSRAIFSVGPVSPSRRWWYRCYAYPIWTPYEWSLPSDLLELDVDG
As to B1, the Kd (in general, the concentration at which binding is half-saturated) was at most 1000 nM and the koff (as a rule, a measure of how fast the partners let go of each other) was at most 2 s⁻¹.

B2: SEQ ID NO 56 (receptor)
chain: MAGHLPKPTLWAEPGSVITMDQPVTLRCQGGQETQEYRLYREKKTAPWITRIPQELVKKGQFPIPSITWEHAGRYRCYYGSDTSQWSASSDPLELVVTGVYIKPTLSAQPSPVVNSGGNVTLQCDSQVAFDGFILCKEGEDEHPQCLNSQPHARGSSRAIFSVGPVSPSRRWWYRCYAYPIWTPYEWTLGSDLLELDVDG
In the case of B2, the Kd was at most 1000 nM and the koff was at most 2 s⁻¹.

B3: SEQ ID NO 47 (receptor)
chain: MAGHLPKPTLWAEPGSVITMDQPVTLRCQGGQETQEYRLYREKKTAPWITRIPQELVKKGQFPIPSITWEHAGRYRCYYGSDTSQWSASSDPLELVVTGVYIKPTLSAQPSPVVNSGGNVTLQCDSQVAFDGFILCKEGEDEHPQCLNSQPHARGSSRAIFSVGPVSPSRRWWYRCYAYMSNAPYEWSLPSDLLELDVDG
Molecule B3 came in with a Kd of at most 1000 nM and a koff of at most 2 s⁻¹.

B4: SEQ ID NO 43 (receptor)
chain: MAGHLPKPTLWAEPGSVITMDQPVTLRCQGGQETQEYRLYREKKTAPWITRIPQELVKKGQFPIPSITWEHAGRYRCYYGSDTSQWSASSDPLELVVTGVYIKPTLSAQPSPVVNSGGNVTLQCDSQVAFDGFILCKEGEDEHPQCLNSQPHARGSSRAIFSVGPVSPSRRWWYRCYAYMSYSPYEWSLPSDLLELDVDG
Molecule B4 gave a Kd of at most 1000 nM and a koff of at most 2 s⁻¹.

B5: SEQ ID NO 53 (receptor)
chain: MAGHLPKPTLWAEPGSVITMDQPVTLRCQGGQETQEYRLYREKKTAPWITRIPQELVKKGQFPIPSITWEHAGRYRCYYGSDTSQWSASSDPLELVVTGVYIKPTLSAQPSPVVNSGGNVTLQCDSQVAFDGFILCKEGEDEHPQCLNSQPHARGSSRAIFSVGPVSPSRRWWYRCYAYPIWTPYEWTRGSDLLELDVDG
In the case of B5, the Kd was at most 1000 nM and the koff is at most 2 s⁻¹.

B6: SEQ ID NO 46 (receptor)
chain: MAGHLPKPTLWAEPGSVITMDQPVTLRCQGGQETQEYRLYREKKTAPWITRIPQELVKKGQFPIPSITWEHAGRYRCYYGSDTSQWSASSDPLELVVTGVYIKPTLSAQPSPVVNSGGNVTLQCDSQVAFDGFILCKEGEDEHPQCLNSQPHARGSSRAIFSVGPVSPSRRWWYRCYAYDSWSPYEWSLPSDLLELDVDG
B6 showed a Kd of at most 1000 nM and a koff of at most 2 s⁻¹.

B7: SEQ ID NO 55 (receptor)
chain: MAGHLPKPTLWAEPGSVITMDQPVTLRCQGGQETQEYRLYREKKTAPWITRIPQELVKKGQFPIPSITWEHAGRYRCYYGSDTSQWSASSDPLELVVTGVYIKPTLSAQPSPVVNSGGNVTLQCDSQVAFDGFILCKEGEDEHPQCLNSQPHARGSSRAIFSVGPVSPSRRWWYRCYAYPIWTPYEWSSGSDLLELDVDG
As to B7, the Kd was at most 1000 nM and the koff was at most 2 s⁻¹.

B8: SEQ ID NO 54 (receptor)
chain: MAGHLPKPTLWAEPGSVITMDQPVTLRCQGGQETQEYRLYREKKTAPWITRIPQELVKKGQFPIPSITWEHAGRYRCYYGSDTSQWSASSDPLELVVTGVYIKPTLSAQPSPVVNSGGNVTLQCDSQVAFDGFILCKEGEDEHPQCLNSQPHARGSSRAIFSVGPVSPSRRWWYRCYAYPIWTPYEWSTSSDLLELDVDG
As to B8, the Kd is at most 1000 nM and the koff is at most 2 s⁻¹.

B9: SEQ ID NO 44 (receptor)
chain: MAGHLPKPTLWAEPGSVITMDQPVTLRCQGGQETQEYRLYREKKTAPWITRIPQELVKKGQFPIPSITWEHAGRYRCYYGSDTSQWSASSDPLELVVTGVYIKPTLSAQPSPVVNSGGNVTLQCDSQVAFDGFILCKEGEDEHPQCLNSQPHARGSSRAIFSVGPVSPSRRWWYRCYAYPAYTPYEWSLPSDLLELDVDG
The molecule B9 gave a Kd of at most 1000 nM and a koff of at most 2 s⁻¹.

B10: SEQ ID NO 58 (receptor)
chain: MAGHLPKPTLWAEPGSVITMDQPVTLRCQGGQETQEYRLYREKKTAPWITRIPQELVKKGQFPIPSITWEHAGRYRCYYGSDTSQWSASSDPLELVVTGVYIKPTLSAQPSPVVNSGGNVTLQCDSQVAFDGFILCKEGEDEHPQCLNSQPHARGSSRAIFSVGPVSPSRRWWYRCYAYDSNSPYEWSQMSDLLELDVDG
Consider B10, for which the Kd was at most 1000 nM and the koff was at most 2 s⁻¹.

B11: SEQ ID NO 40 (receptor)
chain: MAGHLPKPTLWAEPGSVITQGSPVTLRCQGGQETQEYRLYREKKTAPWITRIPQELVKKGQFPIPSITWEHAGRYRCYYGSDTSQWSASSDPLELVVTGVYIKPTLSAQPSPVVNSGGNVTLQCDSQVAFDGFILCKEGEDEHPQCLNSQPHARGSSRAIFSVGPVSPSRRWWYRCYAYMSWSPYEWSLPSDLLELDVDG
The molecule B11 came in with a Kd of at most 1000 nM and a koff of at most 2 s⁻¹.

B12: SEQ ID NO 48 (receptor)
chain: MAGHLPKPTLWAEPGSVITMDQPVTLRCQGGQETQEYRLYREKKTAPWITRIPQELVKKGQFPIPSITWEHAGRYRCYYGSDTSQWSASSDPLELVVTGVYIKPTLSAQPSPVVNSGGNVTLQCDSQVAFDGFILCKEGEDEHPQCLNSQPHARGSSRAIFSVGPVSPSRRWWYRCYAYDSWAPYEWSLPSDLLELDVDG
In turn, B12 registered a Kd of at most 1000 nM and a koff of at most 2 s⁻¹.

B13: SEQ ID NO 38 (receptor)
chain: MAGHLPKPTLWAEPGSVITQGSPVTLRCQGGQETQEYRLYREKKTAPWITRIPQELVKKGQFPIPSITWEHAGRYRCYYGSDTSQWSASSDPLELVVTGVYIKPTLSAQPSPVVNSGGNVTLQCDSQVAFDGFILCKEGEDEHPQCLNSQPHARGSSRAIFSVGPVSPSRRWWYRCYAYMSWAPYEWSLPSDLLELDVDG
B13 displayed a Kd of at most 1000 nM and a koff of at most 2 s⁻¹.

B14: SEQ ID NO 32 (receptor)
chain: MAGHLPKPTLWAEPGSVITQGSPVTLRCQGGQETQEYRLYREKKTAPWITRIPQELVKKGQFPIPSITWEHAGRYRCYYGSDTSQWSASSDPLELVVTGVYIKPTLSAQPSPVVNSGGNVTLQCDSQVAFDGFILCKEGEDEHPQCLNSQPHARGSSRAIFSVGPVSPSRRWWYRCYAYVAWAPYEWSLPSDLLELDVDG
As for B14, the Kd is at most 1000 nM and the koff is at most 2 s⁻¹.

B15: SEQ ID NO 57 (receptor)
chain: MAGHLPKPTLWAEPGSVITMDQPVTLRCQGGQETQEYRLYREKKTAPWITRIPQELVKKGQFPIPSITWEHAGRYRCYYGSDTSQWSASSDPLELVVTGVYIKPTLSAQPSPVVNSGGNVTLQCDSQVAFDGFILCKEGEDEHPQCLNSQPHARGSSRAIFSVGPVSPSRRWWYRCYAYDSNSPYEWTRGSDLLELDVDG
As to B15, the Kd was at most 1000 nM and the koff is at most 2 s⁻¹.

B16: SEQ ID NO 52 (receptor)
chain: MAGHLPKPTLWAEPGSVITMDQPVTLRCQGGQETQEYRLYREKKTAPWITRIPQELVKKGQFPIPSITWEHAGRYRCYYGSDTSQWSASSDPLELVVTGVYIKPTLSAQPSPVVNSGGNVTLQCDSQVAFDGFILCKEGEDEHPQCLNSQPHARGSSRAIFSVGPVSPSRRWWYRCYAYPIWTPYEWSQMSDLLELDVDG
Molecule B16 yielded a Kd of at most 1000 nM and a koff of at most 2 s⁻¹.

B17: SEQ ID NO 36 (receptor)
chain: MAGHLPKPTLWAEPGSVITQGSPVTLRCQGGQETQEYRLYREKKTAPWITRIPQELVKKGQFPIPSITWEHAGRYRCYYGSDTSQWSASSDPLELVVTGVYIKPTLSAQPSPVVNSGGNVTLQCDSQVAFDGFILCKEGEDEHPQCLNSQPHARGSSRAIFSVGPVSPSRRWWYRCYAYPAWTPYEWSLPSDLLELDVDG
Consider B17, for which the Kd is at most 1000 nM and the koff was at most 2 s⁻¹.

B18: SEQ ID NO 34 (receptor)
chain: MAGHLPKPTLWAEPGSVITQGSPVTLRCQGGQETQEYRLYREKKTAPWITRIPQELVKKGQFPIPSITWEHAGRYRCYYGSDTSQWSASSDPLELVVTGVYIKPTLSAQPSPVVNSGGNVTLQCDSQVAFDGFILCKEGEDEHPQCLNSQPHARGSSRAIFSVGPVSPSRRWWYRCYAYMNWAPYEWSLPSDLLELDVDG
Take B18: the Kd is at most 1000 nM and the koff is at most 2 s⁻¹.

B19: SEQ ID NO 45 (receptor)
chain: MAGHLPKPTLWAEPGSVITMDQPVTLRCQGGQETQEYRLYREKKTAPWITRIPQELVKKGQFPIPSITWEHAGRYRCYYGSDTSQWSASSDPLELVVTGVYIKPTLSAQPSPVVNSGGNVTLQCDSQVAFDGFILCKEGEDEHPQCLNSQPHARGSSRAIFSVGPVSPSRRWWYRCYAYMSNSPYEWSLPSDLLELDVDG
The molecule B19 registered a Kd of at most 1000 nM and a koff of at most 2 s⁻¹.

B20: SEQ ID NO 51 (receptor)
chain: MAGHLPKPTLWAEPGSVITMDQPVTLRCQGGQETQEYRLYREKKTAPWITRIPQELVKKGQFPIPSITWEHAGRYRCYYGSDTSQWSASSDPLELVVTGVYIKPTLSAQPSPVVNSGGNVTLQCDSQVAFDGFILCKEGEDEHPQCLNSQPHARGSSRAIFSVGPVSPSRRWWYRCYAYPIWTPYEWSLGSDLLELDVDG
B20: the Kd was at most 1000 nM and the koff is at most 2 s⁻¹.

B21: SEQ ID NO 59 (receptor)
chain: MAGHLPKPTLWAEPGSVITMDQPVTLRCQGGQETQEYRLYREKKTAPWITRIPQELVKKGQFPIPSITWEHAGRYRCYYGSDTSQWSASSDPLELVVTGVYIKPTLSAQPSPVVNSGGNVTLQCDSQVAFDGFILCKEGEDEHPQCLNSQPHARGSSRAIFSVGPVSPSRRWWYRCYAYDSNSPYEWSSGSDLLELDVDG
On to B21, for which the Kd was at most 1000 nM and the koff was at most 2 s⁻¹.
